# Source: the domain aggregation screens of Martell et al. (2025)
# Test: soluble fraction after stress (log2 fold change); higher = more stays soluble; pooled small domains, quantitative proteomics
# Details: stress: pH 4
# Outline: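 Values are on a log2 scale, where higher means more of the domain stayed soluble after pH 4 stress. They are fold changes in the soluble amount of each domain from pooled custom libraries, measured by high-throughput quantitative proteomics. The fold change is taken to reflect aggregation propensity.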
sequence,measurement,value
HMQERQREGFVQQLRGKYSGQVVMRLFPELQGKALGEFMRKFEAQWEDHEAVLAAMEAHEIESRLKVFK,soluble fraction (log2),-1.2
HMTMNYFIIENNQQVGPLTLEQLVARNITSDTLVWKEGMEDWQPAWKVDELHTVLDQIRANAEQ,soluble fraction (log2),-1.19
HMKQPNSYGSVHKLPGKRRKPWRVRKTSGWLLDEQSGTVKQQYITIGYYATKQEALIALADYNENP,soluble fraction (log2),-0.434
HMAEAIVMSTAAPVKSSPDPQSKDIFVLHEGTKVAVGDSLGDWREIRIADGNKGWVLVSAIEMI,soluble fraction (log2),-0.173
HMADFIGMNATVTERIFPQGFGRISFVYEGNSISEPARSEDGKEIPTGTSVVVLEVRDKVYIVQPL,soluble fraction (log2),-0.0827
HMDTSISHLVGRTGEAVTDLRPAGTVMIDGELYDARATEGFIEKGEIVKAIKYQYGQLNVRRVSK,soluble fraction (log2),0.149
HMDIVIPIQVKNVSSGEVLDFPSIRAAARDLKFPKTTISLGVRYAGEKAYKGFVMRYRSDDPWPIVQES,soluble fraction (log2),0.103
HMVSQELIMLGNRIREYRKERGFSQEILAEKSGVSTNTISRIEGGQMAMSVGILQRIVKALGVDANVMLG,soluble fraction (log2),0.12
HMGLNVSYRMDGENVVETIIFSGATMIRTVTPTGTMTIKTIENGSTSTAKVNADYSVYKKIYEAQY,soluble fraction (log2),-1.03
HMQLEPLVTSVIPVNFAKASDISGTIKGKEVGLLSERGNITAENRTNVLIVKDIRKSVDEINAMVKRLD,soluble fraction (log2),0.151
HMKPGTIVTGVVVDIKSDVVVVNAGLKSEGIVPIEQFRNDRGELEVAIGDEVKVALDSLENGFGETVLSRE,soluble fraction (log2),-1.21
HMPPAIKTLMFMIQNKSLLKSPKQLAVVQQQLKKIKGVRDVLILLEEGKVMLKVNKHETIHEASIIRLLGG,soluble fraction (log2),0.00198
HMAPSLSEYAYEEIKHAIERGVYPPGAKLITQEIADRLGISRTPVVAAVNRLTAEGYADAVPQHGIFVK,soluble fraction (log2),0.0288
HMEQSLNTYSIRTVKESLFLAETKNLNKIEKLVEGIEGRLTLSEALVLFSDKLNAMSVLSHVNANT,soluble fraction (log2),-0.273
HMEFQSIGGKIRIGREREHLTQAELAQKLSVTRQAVSNWERDKTLPDIYMIREIAEIFGLTLDEFMEGAKK,soluble fraction (log2),0.0806
HMISAADLQTYLKGMDYPAGREDLVAHAQRNNAPESVITILQGFSDRTYRSAAEVSEEFGRE,soluble fraction (log2),-0.371
HMLMDVRVPDIIGVEINQAKEILTASSLLIGKITYVSLPEIEKDLVIETSVLAGRRVSAGTVIDITVNKE,soluble fraction (log2),-0.87
HMTTIKLTQEDVEKIKSLPKRTFLIGNLQQTGLYDEKTRRFYYLDANGEWNGRLAIINTPPPPPPPP,soluble fraction (log2),-0.0951
HMNVAVGNSKLVGVAGERAYFVNGVGAAARTLSLQVGDALPTGEKVRRIERDGVTMTGASGDVRLSVLP,soluble fraction (log2),0.138
HMTNPPTPADTLFNTVRGVLQSILKSPMKDTEVASALNVSKAQARSWLQRLSDEGLIEKRKNPTAYVL,soluble fraction (log2),-0.321
HMTRNEFMTALRKRLSHLPAEEQDAALKYYEEYFDEAESEEEAARQLGSPDAIADRILADYGAG,soluble fraction (log2),-0.261
HMSTEPLALVGKTGIAATVLRPSGRIEVDDKYYDAVSLGAFIEKGEMVNIVKYENLQLYVAKL,soluble fraction (log2),-0.0114
HMRGGKGTVPDVTGMDAAAAVRILEKAGMNVAYIRGAGFVAEQTPAAGTKLKKGDKAYITLSWK,soluble fraction (log2),0.181
HMAIKTGAVTGHGVKVRKGPSTNEKAIHDVLYGSRLQILEEKNGFLKAKFEDGTTGWISKQFVTTTDKNLL,soluble fraction (log2),-0.0244
HMPAMYKAERMNQILSILADQGDVDVGTLARQFGVSLVTIRKDLTYLESSGQLVRTHGGAIAVA,soluble fraction (log2),-0.26
HMLFGKKYLGKVPNDASGRISLWNDIVKHHQELQNIRAIENFTSDNVTVAQGDTKKAVVVTDYVT,soluble fraction (log2),-0.152
HMNQTTYTVLYSGMDPADTGKVLTALNEMGVDARTQGEDTVLVPADRADEIRLELAAQGYPTS,soluble fraction (log2),-0.0312
HMHVSLADQAYKTIRTNILNLTYPPGTQLTEAKLASDLNMSRSPVRTAIKMLQADGLLVSDYYKSMTVK,soluble fraction (log2),≥ 0.43
HMSGDYRALYSSLPPERASSVVDALNVAGIPYRIQDSTGAIMVPAEQIYDARIRLAGQGLGK,soluble fraction (log2),0.0695
HMYRPQQEFTMRDLFQNNLNGSESASVRRDALGAELGIGYGNAKRFLERLNHYGVSREEFTAALEKLESE,soluble fraction (log2),-0.205
HMTHPAHLARIGALIRSARQHEGLTQAQLAELLGTSQSAIHRIEQGGQNITLDMLTRISAALDSEIVTIG,soluble fraction (log2),-1
HMIDQSVVVQYLSKLTNTPYLKTREITMGEPYMQFERGEIKFQEYVEDIRALLPGGDRIDADRLRDIWMNS,soluble fraction (log2),-0.721
HMAFDESLVRSIQELLSELGYSPGKIDGLLGAKTVAAIKAFELEINKDQLTGEPSEELLIALQLAIRSSKM,soluble fraction (log2),-0.968
HMSVKYLQIYHAIREKILSNEYAINQQLPDEITLTKEFNSSRMTVKKALDLLVSEGLIFRKRGQGTFVLSR,soluble fraction (log2),≥ 0.43
HMEEEPALLRDLLAKTLEFGLIPQLSHHPALADRTQQLASAVRAAGSASALRNAAASLKSLWIDVDQ,soluble fraction (log2),-0.617
HMDTIASESVRNRIEELISNENPKKPLSDQALVKMLQEFDIKIARRTVAKYREMLKIPPSSKRKQV,soluble fraction (log2),0.0429
HMLPGLGPIERAQFMLQAIPGISPTRSAALIDKFGSIAGIAQASIKDIQTIEGIGKKTATTLYEVLNAG,soluble fraction (log2),-0.223
HMADLNFHQQIRSLPPEQQEILLLRFGQELTLRQIAQVTGVPLRTVQSRLRAALKKLKSQLEKEE,soluble fraction (log2),-0.0215
HMYNNGYVNSDRVNFRKGASTNSDIYKVLDKNTSVTILDYEGDWSKVKINDTVGYVYTKYITAG,soluble fraction (log2),-0.0882
HMKDLQHLVGEKGTTVTPLRPSGIALIKGSRYDVVSEGSFIQQGVAVEVIKVEGRRVVVSPLQED,soluble fraction (log2),-0.0748
HMQSNIHELQKKLNEALQALSEDHRAVVTMFDIQGMPHAEISKILGVSEGTVRSRLYYAHQQLQGHL,soluble fraction (log2),-0.663
HMRNAAGGIYGWMTLHQVAETVKLTEEEVIAITNLPAGIPRDVSLKNIEGVNDEELRALLEAYLEKQ,soluble fraction (log2),-0.968
HMSEFLTIVRAVYSGLSRRKVAAMHKVSRNTVSLYLRQARDQGWLTLEDLEKLDDLTVSQGVS,soluble fraction (log2),-0.918
HMNVDALIGTKGIVVQPIRPFAVGQVKVNGQVWSAVGKTPETDIEQGREVKVHAIEGVKLVVTPT,soluble fraction (log2),-0.134
HMEDDRLIQNLLLTAKNLVMDVGRMDESALAENEDTVRTAMLFALGYLYENRSNPDYHKLTLNLRSILFA,soluble fraction (log2),-0.807
HMAHYYVRNGYYYYQRRIPLDLRKFYSGANIKASLKTKDPAIAALFVAKFDRQYDAEFAQRRLNPD,soluble fraction (log2),-0.277
HMHRGEIVDGVIASVNPRSILIDIGGKSDALVHPRELERMSDEDLRSLKPGQDVSVYVIETDSDGTMLVSL,soluble fraction (log2),-0.86
HMQSLAAKINGYIVAQRTSIAAIAKEIGYSRVTVSRYLAGKYDSDPTGIEAKLAAFLAGQTGEE,soluble fraction (log2),0.114
HMPLSVRQRMSDILSNLKTSDFTNFADLFDPKEGRTGITVTFIAILELLREFLIEVVQSDHYQPLHVRAAS,soluble fraction (log2),0.115
HMYSYNKEEVGKRIKSIRQQKGLTQESFGELFGASKGNVATWEKGISLPNASRLREIADLVSITVEELLYG,soluble fraction (log2),0.00486
HMERPLFVIEDYRRFAGNEVEISLKKGGKKIRGVIAGTPSDAEVTVRTQGGETTVPLGDVKRAHLVYV,soluble fraction (log2),0.0919
HMPEVYSFEVNEGAAGKRLDIFLSGEIEGLTRSFIQKLISEGMATVNQEPPRASYRVKTRDLVELQIPDPE,soluble fraction (log2),-0.309
HMILKNVPSNLVNQRLDKVATVLFQTYSRTQIKKWILEGRLLVNGEISNPKDLVNENDEIEINPI,soluble fraction (log2),0.3
HMDYTPIEVKDLPQAIQDALTKNFSEYTVKSAAYQEDEDGVKIYQVTVVDEEGTEANIFFTEKGE,soluble fraction (log2),0.00729
HMAQIVNLPRKNVNGASYYYYEVQPKETIYSISRKLGVSGAEIQRHNPSVADGLKIGQVLYFPAEG,soluble fraction (log2),-0.0603
HMHVLNEEYYNRIKAIQFTMNHDDGNSLNDIEKSDIILLGVSRTSKTPTSIYLANRGLRTSNIPLINEK,soluble fraction (log2),-0.316
HMNAYEVLIPNIYIGQRVDQTLASLFPQFSRSRLQNWLARGNLLIDGEIIKPKTKVLGGEQIIILDT,soluble fraction (log2),-1.05
HMKIPIIYQPLKNAKRIKIYIPYELKELRTIFKKINTTFWHPNQKLWSIIYTQENVALIKNLFGKNYKIVN,soluble fraction (log2),-0.0514
HMLQGKVSFFNDEKGYGFIKDNNSKDSYFVHINKVEGEIAEGDKVTFELEKGPKGLVAANVKR,soluble fraction (log2),-0.145
HMKNHIEERRKARGMTQQQLASELGVSRQTIISLENGKYNPSILLAHSIARLFGERIEDIFILR,soluble fraction (log2),-0.354
HMSKQQVRSILDDIPNIGETRRKALMRQFQSLEKIREASVGQLREVDGMNEKAAQSVYQFFHK,soluble fraction (log2),0.108
HMNQEQQSAVMSALKATLPDLEAALEARQFKESKQLLKTAQNQFQQLDGRNRRGFQARIQLLAGQFRELS,soluble fraction (log2),-0.00484
HMELMKPPGYWQSLENAIYESKKVIKEHGFDTLPSSNKLRELDYHGLSRAISVHHSGFPNFREIMNQELGI,soluble fraction (log2),-0.0528
HMFEFFKGIYSISLLKKDGIFFVTFKDENKEAVKHIFPEKPTALELGIKVMEMFEYKERYDGII,soluble fraction (log2),-0.226
HMFAVPAPEVDDILSEKKVDVLLLGPQVRYLLEQFTEKLKDKNIPIGVIPMVDYGMMNGSKVLALAEELIG,soluble fraction (log2),-0.288
HMPESETIMVDVKGAVQSEGVYELPSTARVNDAIEAAGGFSDQADKKSVNLAQKLSDEAVVYVASQGENV,soluble fraction (log2),-0.28
HMIAVSQEQIKQIIVDDPSFHDANGKFSQALLTQYLNQRRMSEDQFVEEIRDQFLFQNLQNLVQNG,soluble fraction (log2),-0.623
HMRILGIDPGTRITGYGIIDIEGNRLRHVDNGIIKTRSSDALPLRLKVIYDGLTAVLKQYSPQAV,soluble fraction (log2),-0.629
HMDPLADLFSRIRNAQMRNKKVVTSPASKLRAGILEVLAKEGYIRGYAMTQHASGKNELDIELN,soluble fraction (log2),-0.0916
HMQMLQDPFLNALRKEHVPVSIYLVNGIKLQGQVESFDQYVVLLRNTSVTQMVYKHAISTIVPARAVSL,soluble fraction (log2),-0.412
HMIDEQDLKKYILISTSVEELTDYLGATDRMLYDYLYSLKHVGQYWQLNERFLLDLYKLPNLVIVDKEDLE,soluble fraction (log2),-0.351
HMNGVSNETLIQKSALYEELNQPDLALKMINTALKKDSVNIEILHRLVTLLMSQEKNEEAILYNQKIIDH,soluble fraction (log2),-0.0993
HMNDVLVGAIPESASGSRLDKVMPSVFPPYSRSQLQVWLKQGRILMGNGIPSPRLIVSGGEVLSLVVPELP,soluble fraction (log2),-0.244
HMLTTADLMMVHANSNKAIDYIVTDDNTKLTVDEPVTAKWITTADSIYRAVAYYNKVGDGKAQIVSVGN,soluble fraction (log2),0.0559
HMENQFNDWSLTPSEKEVALFMLKGLSTQEIAAARNTKEKTVRQQASAVYAKSQLDGRYALAAWFFEDI,soluble fraction (log2),-1.04
